Patent US20090297479A1
Each block holds one substance with its values, some of them ahead of it.

Key:
[1] = target: PD-1 on human peripheral blood CD4+ T cells (human) (UniProt Q15116); assay: cell-based or functional assay
[2] = target: syndecan-4 (SD-4), human (human) (UniProt P31431); assay: cell-based or functional assay
Sequence of syndecan-4 (SD-4), human (human) (P31431 19-198): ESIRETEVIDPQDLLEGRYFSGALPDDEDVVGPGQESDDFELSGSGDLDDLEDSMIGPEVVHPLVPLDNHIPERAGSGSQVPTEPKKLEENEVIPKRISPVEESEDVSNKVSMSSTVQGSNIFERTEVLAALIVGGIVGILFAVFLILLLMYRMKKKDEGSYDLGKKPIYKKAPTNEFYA

Sequence of PD-1 on human peripheral blood CD4+ T cells (human) (Q15116 25-288): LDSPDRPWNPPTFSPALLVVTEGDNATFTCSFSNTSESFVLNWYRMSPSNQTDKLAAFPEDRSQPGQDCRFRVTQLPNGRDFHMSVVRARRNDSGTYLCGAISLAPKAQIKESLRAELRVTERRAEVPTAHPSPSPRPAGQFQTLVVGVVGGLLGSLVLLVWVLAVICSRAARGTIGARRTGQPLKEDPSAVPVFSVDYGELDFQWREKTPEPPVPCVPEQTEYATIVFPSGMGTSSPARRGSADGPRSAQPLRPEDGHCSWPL
Sequence of saporin-conjugated DC-HIL (human DC-HIL-Fc, biotinylated and conjugated with streptavidin-saporin) (Q14956 23-498): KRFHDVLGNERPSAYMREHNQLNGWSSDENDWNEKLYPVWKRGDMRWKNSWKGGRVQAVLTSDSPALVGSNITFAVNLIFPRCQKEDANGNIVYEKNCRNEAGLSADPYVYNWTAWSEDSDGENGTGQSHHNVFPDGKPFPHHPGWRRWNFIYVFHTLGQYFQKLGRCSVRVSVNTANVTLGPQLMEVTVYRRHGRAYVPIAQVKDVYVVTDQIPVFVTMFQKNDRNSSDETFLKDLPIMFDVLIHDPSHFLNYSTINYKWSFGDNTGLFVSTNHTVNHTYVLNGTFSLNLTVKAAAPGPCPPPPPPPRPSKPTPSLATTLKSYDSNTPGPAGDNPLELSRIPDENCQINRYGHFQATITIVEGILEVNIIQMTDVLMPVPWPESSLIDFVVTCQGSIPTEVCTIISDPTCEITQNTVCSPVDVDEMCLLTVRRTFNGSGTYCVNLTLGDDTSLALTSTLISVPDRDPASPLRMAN

inhibition of proliferation induced by 0.3 µg/ml anti-CD3 Ab, Ab at 40 µg/ml [1]: 50 % inhibition | reduction of T cell proliferation at 0.1 µg/ml anti-CD3 Ab [1]: 50% | reduction of T cell proliferation at the highest dose (3 µg/ml) of anti-CD3 Ab [1]: 10%
Substance: anti-PD-1 Ab (MIH4) (antibody)

IL-2 production by HUT-78 cells triggered by anti-CD3 Ab [2]: < 70%
Substance: human DC-HIL-Fc (extracellular domain of human DC-HIL fused to the Fc portion of mouse IgG2a) (from UniProt Q14956 23-498) (Fc fusion)

Substance: saporin-conjugated DC-HIL (human DC-HIL-Fc, biotinylated and conjugated with streptavidin-saporin) (from UniProt Q14956 23-498)
proliferation (3H-thymidine) of HUT-78 cells [2]: 60 % reduction
